The supplement of paper PMC9170038

Test system: K4 kissing-loop RNA reporter
Experiment: apparent KD of K4 kissing-loop reporter; higher = weaker reporter binding
Settings: Eterna round: R107
Description: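 RNA-MaP round R107: designed RNA switches with theophylline, tryptophan, arginine or FMN aptamers are transcribed on-chip within common flanks. They are titrated with a labelled K4 kissing-loop RNA reporter in RNA-MaP buffer (100 mM Tris pH 7.5, 80 mM KCl, 4 mM MgCl2), without ligand or with the indicated ligand. Median apparent KD per design.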

[1] = input ligand: theophylline 20 uM
[2] = input ligand: tryptophan 2.4 mM
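Further: bound reporter read as fluorescence of individual clusters on recovered sequencing chips by microscopy, with normalized cluster intensities fitted with a binding model.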

Row | Sequence | apparent KD of K4 kissing-loop reporter (input ligand: FMN 200 uM) [nM] | apparent KD of K4 kissing-loop reporter (input ligand: arginine 13.2 mM) [nM] | apparent KD of K4 kissing-loop reporter (input ligand: none) [nM] | apparent KD of K4 kissing-loop reporter [1] [nM] | apparent KD of K4 kissing-loop reporter [2] [nM]
1 | ACCCUGGGUCCCGAAAGGGACCCAGGGAGUGAGGAUAUGUGGAAACACAGAAGGCACAGCACAGUGAUGUUGUGCGACGAAAGUC [#02 K4 FMN A Same State] | 566 | 97.5 | 401 | 175 | 217
2 | GGAUAGGACAGAGGAUAUGGGCUAGGCAAGAAUAACUUGUCUAGCAAAUCCAUGAGGAGUGAUGUUCCAGAAGGUUGUCCUAUCG [FmnBX 1 U75] | 284 | 108 | 92.3 | 120 | 87.8
3 | GAUGAUCGCGCGGCCGCCACUGGUCAGUGAUGUUGACAUUAAGGCGCCGAGUAGUAACGGCGCCACAGGACCGGGCGCGAUGUAG [First Shot] | 135 | 155 | 156 | 126 | 176
4 | UUAGGAGUGGAAGGAUAUCCUGGUGUGGGUGAUGUUAGUGAUGUUGAAAGUGCAGUGAUGUUGCGCGGAGAAGGUCCGGUGUUGA [BDazzled - #7 - Exc. FMN B] | 180 | 153 | 173 | 256 | 157
5 | AACUGUCAAGGCCGACAUUACUGAGGUGAUACCAGCAUCGAAAGAUGCCCUUGGCAGCACCAACUUGCAGUGAUGUUGCAAGUAA [BrourdMod 14 - Jieux - Exclusion - Theophylline A] | 191 | 158 | 170 | 198 | 184
6 | AUGUAUGAAUUAGGAUAUCGUUAGCCUUGCAUAUAUAUGAUAAAUGGAUAUGUCGUAGUGAUGUUACGAGAAGGAGUGUGGAGUA [KL-XFMN-B5] | 44.6 | 50.5 | 38.9 | 63.4 | 30.2
7 | GUGACCUACUCAGGAUAUCCGCAGUGAUGUUGCGGUUGGCCUGAGCGACAUGAAAAUCUUACUACAGGAGAAGGGAGAGGGUUAC [Leanteti] | 113 | 92.7 | 109 | 89.2 | 91.5
8 | ACUUGCACAAAGUCGUCAACCGGUGAAUCAAAGGAUAUUAAUUCACUAAGAAGGUUGAGCCGAGUGAUGUUCGACUGUAAGUCCC [theeternabot_exclusion_KL_FMN_A_34] | 415 | 382 | 551 | 506 | 348
9 | GAUUUAGAGGCGGCCGCCACUAGUGAUGUUAGUGAUGUUUGAUACUGAAUAUAUCGGCGUGUAGAUAGGACCGGGCCAGAUGGAG [zwqqmullin] | 221 | 179 | 218 | 211 | 203
10 | AAGGGCGAGGUAACGUGGAUAUCUCGUCGCAAGGAUAUCUGGAAACAGAGAAGGUGCUACAUUACCGGCAGUGAUGUUGCUGACC | 887 | 312 | 573 | 278 | 261
11 | AAGCAGUCACUCUAAGCCAUCGAAGAUGGACGAGGACCGGUACGGCCGCCACUCGGAGUGAUGUUCCGAAGACUGCAAAAUAAAA | 379 | 402 | 466 | 396 | 399
12 | GAGGUACAGGCGGCCGCCACUAGUGAUGUUAGUGAUAGAAGAUAUAGUAAAUAUCGGCAUUUAGAUAGGACCGGGCCUGGUGGUG [ffdfcmullin] | 296 | 242 | 271 | 286 | 275
13 | AGUGGUGUAUCUUUUAAGAGUGAUGUUUUUCGAGGACCGGUACGGCCGCCACUCGAGUGAUGAGUGCGUCGUUGUGGUGAUUAGU [#14 K4 Tryptophan A Exclusion] | 816 | 530 | 826 | 688 | 262
14 | CGAGUGAUGUUCGUUCGUUUAUUUGGGUGACAGGAUAUGCGGAAACGCAGAAGGGUCACCUUCGGGUUACCCGAAUUAACGUUAU [#09 K4 FMN A Exclusion] | 724 | 520 | 688 | 587 | 717
15 | UUGCAAGAGUCGGCCGCCACUCCGGGCCCUAUAAAUGGGCGCAGUGAUGUUGCGGCUAGGCCUCUGAGGACCGGGACUUUGUAGC [Ateusraor] | 51 | 55.4 | 78.5 | 82.9 | 111
16 | UAAUCCUAGUGAUCCUUAUCAAGUGGUGGGCGAGGACCGGUACGGCCGCCACUCGAAUAUGCAGUGAUGUUGUAAUCCGGAUAAU [Exclusion - Tryptophan A (Freestyle 9)] | 568 | 741 | 919 | 750 | 440
17 | UCUUAACUAAAAUAAUGGGAUACCAGUGAUACCAGCCAUAUGCAGGGCCCUUGGCAGCACCCUUGGCAGCCUCGAGUGAUGUUCG [KL-SSTheo-A7 #DoubleAptamer] | 283 | 292 | 315 | 247 | 230
18 | AUUCUAUUGUGAAGGAGCGCGUAUAGUAGUGAUGUUACUAUAAUAAUAGAUAUUUAAUUCUCGCAGGUAGGUCGCACAAUAUAUA [JR_Nu_ExcArginiB_Sub025] | 102 | 82.6 | 96.3 | 85.6 | 92
19 | CGGAUGUAGUGAUGUUAUAUAAGAUGUAGACGAGGACCGGUACGGCCGCCACUCGAAACGGCUACUAGCGCGUUGCGAGGUGUGC [ExTryptoA.CI] | 952 | 460 | 960 | 674 | 514
20 | AGCUCAGAGUGACUCGAUAAGAGUCACAAACGAGGACCGGUACGGCCGCCACUCGAAAUAAUGGGAGUGAUGUUCUCACUGAGCA [#SwitchBubble 3 #StaticStem #K4Late] | 1030 | 719 | 1190 | 796 | 384
21 | AACCACUCGUUACAUCACUAUCGAGUGGAACGAGGACCGGUACGGCCGCCACUCGGUAACAAGCAGUGAUGUUGCUUGUAAGAAU [KL-SSTryp-A (BrourdMod)2 #dotplot2 strengthened] | 298 | 252 | 307 | 312 | 164
22 | ACACGCAACUAUAGACCAGUGAUGUUGGAACGAGGACCGGUACGGCCGCCACUCGAGCGGACGAUCUACGCCUCUUAUGCUAACG [theeternabot_exclusion_KL_Trp_A_15] | 482 | 481 | 552 | 545 | 350

Row | Sequence | apparent KD of K4 kissing-loop reporter (input ligand: FMN 200 uM) [nM] | apparent KD of K4 kissing-loop reporter (input ligand: arginine 13.2 mM) [nM] | apparent KD of K4 kissing-loop reporter (input ligand: none) [nM] | apparent KD of K4 kissing-loop reporter [1] [nM] | apparent KD of K4 kissing-loop reporter [2] [nM]
23 | ACGAUUUACAGAAGGAGCGUGUAUUUAACUACAAUUAUCUUAGCGAGUGAUGUUCGUUUUACACAGGUAGGUCGCUGUAUAUCGA [JR_ExcArginiB_Sub011] | 218 | 303 | 263 | 374 | 220
24 | UCGACAGUGAACGAUACCAGCGUCACGUGGCUGGUGGUCACAUGAGUGAUGUUCAUGUAACGCCCUUGGCAGCGUGCACGUAUCA [KL-XTheo-B8] | 141 | 127 | 133 | 125 | 129
25 | GUGACACGUGAUGAUACCAGUCCACGGAAGUUCCUUAGUGAUGUUAACCUUGCUUUUUCUGACCCUUGGCAGCAUUAGUUGAGAA [theeternabot_sameState_KL_Theo_B_42] | 332 | 166 | 204 | 304 | 237
26 | UAUCUUUGCUGAAGGAGCGAGCAUGUUGGAGUGAUGUUCCGAGCGAGUGAUGUUCGCAUAGCUCAGGUAGGUCGCAGUGGGAGGA [Same State Arginie B GF 16] | 129 | 111 | 147 | 164 | 135
27 | GGAUUGCCAGUGAUGUUGGCAUAAACUGAAGGAGCGCGUGAAAACGCAGGUAGGUCGCAGAACCUUGCCAACUAUAUUAUUUACC [Ex Arginine A K4 22] | 111 | 137 | 123 | 146 | 102
28 | AGUACGGCAAACUUGCAACAAGCCGUACCACGAGGACCGGUACGGCCGCCACUCGAUAACUUGCAGUGAUGUUGCAAGUAAGAAU [(T)''-(K)'-(T)'-(T1)-(T2)-(K1)-(K2)_Design5] | 161 | 140 | 169 | 226 | 209
29 | GUAUCGCUAGGAGGAUAUUUCGUUUUUCAUAGCAAUGGCUAUGCGGAGUGAUGUUCCGAUUUACCGGAAGAAGGCCUAGUGAUAC [FMN B 26] | 109 | 172 | 202 | 205 | 165
30 | UCCUAGGCUCGAAAGAGCCUAGGAUUAUCUCAGGAUAUCCGGAAACGGAGAAGGGAGAAACUAGUGAUGUUAGGGAUUCCCUAUU | 574 | 184 | 213 | 259 | 137
31 | AAAAUAAACCAGUGAUGUUGGUGUCUGGAUACCAGCGACGAAAGUCGCCCUUGGCAGCUACGGACGUACAAAAUAAGUACGUCCU [MatMod 8 - Jieux - Same State - Theophylline A] | 709 | 487 | 655 | 680 | 561
32 | AGGUCAGCAGGAAGGAGCGCCCUGACAGGUUGCUGCCGUGGGCAGUGAUGUUGCUCAGUCCGGCAGGUAGGUCGCCUGCUGACCU | 204 | 157 | 153 | 188 | 156
33 | UAUAAUUCGGCGGCCGCCACUGACCAUAGCCUUCGAUGGCCAGUGAUGUUGGCCUCUGGCUCUAACAGGACCGGGCCGAAUUGCG [Aririmaus] | 228 | 179 | 260 | 277 | 135
34 | GCCGUAGAUUGAAGGAGCGAGUAGGCUCACUUGCGAAGUGAAUAGCAGAGUGAUGUUCUGUCUCAGGUAGGUCGCAAUCUACGGC | 701 | 172 | 388 | 436 | 397
35 | AUUUAGACGAGUGAUGUUCGUGUUAUUACAGAGGAUAUGCGUAAUUGCAGAAGGCUGUAUUUAUAUAUGUUAUGUAGUUUUAAAA [whbob_Ex_FMNA__2th184] | 87.3 | 108 | 84.8 | 94.8 | 74.1
36 | GAUACGUCAGUGAUGUUGAUGUAUUACACAGAGGAUAUCGUAAUGACGAGAAGGCUGAGCCAUCUAGAGAUACGUAAGACGUAUC [FMN A SS t5] | 154 | 196 | 184 | 188 | 205
37 | GGUGCUGUCUGUGCCGCCCUCCUCGUCCCUCGAGGACCGGUACGGCCGCCACUCGAGUGAUGUUCGGGUAGCGAUCCCUGCUAGC [Bdazzled - #18 Exc. Tryptophan A] | 275 | 194 | 246 | 229 | 256
38 | AGACUACUGAUAGGAUAUAACAUACUAGCUCGUAUACCAAAGGUAUACGAGCACCUUCUAGUGAUGUUAGAAGGGUCGGUAGUCA [Omei KL FMN B Exc B v3] | 301 | 104 | 108 | 109 | 117
39 | UUGUUUGGUUGAGAGGUUGGGCGAGAUGAUACCAGUAUAGUAUUGUACCCUUGGCAGCAUAGGAGAGAUAUAGUGAUGUUGUAUG [SSTheophA.W] | 419 | 320 | 457 | 416 | 328
40 | CAGAAGCAUUCGGCCGCCACUCCAGUGAUGUUGGAGCGGGAGGGCCUUAAACCUCGAGGCUGCUGGAGGACCGGGAAUGUUGAGG [Beerso] | 166 | 164 | 168 | 173 | 269
41 | UGGACAUGACUCGAUAAGAGUCAAUGGGAUACCAGUGACGAAAGUCACCCUUGGCAGCUCAACUGCCAGUGAUGUUGGUAGUCCU [Astros-Elimod] | 205 | 119 | 207 | 157 | 125
42 | AAAACUCAUGGCUUAUAUCCGUGUCUCGAAGGAGCGUACAGCGGUACAGGUAGGUCGCGAGACAUGAGUGAUGUUCAUGUGUAAA [KL-XArg-A6 #analogue] | 109 | 109 | 129 | 169 | 104
43 | ACACUAUCGUCAUAGACGGUAGUGAAAGCUCAGGAUAUGAGUGAUGUUAGAAGGGAGUAAAUCUUAGGUAUCGAAUAGAUACCAA [FmnA 7 #K4BetweenAptamer #OpenEnded] | 1220 | 364 | 508 | 287 | 416
